Data set [1] relates to HeLa Kyoto. Kind of data set: thermal stability score vs G1/S (z-score of summed log2 fold changes over temperatures); higher = more thermally stable than in G1/S.
The test system of data set [2] is HeLa Kyoto. Description: melting temperature (median over replicates), in situ; higher = more thermally stable.
Data set [3] concerns HeLa Kyoto. Description: solubility change mitosis vs G1/S (difference of NP-40 vs SDS log2 ratios) (log2 ratio difference); higher = more soluble in mitosis.
Data set [4] deals with HeLa Kyoto. Description: solubility in G1/S (NP-40 vs SDS abundance) (log2 ratio); higher = more soluble. The following applies: cell cycle stage: G1/S.
The mark [5] stands for this setting: cell cycle stage: early G1 (4.5 h after nocodazole release).
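Throughout, for melting temperature (median over replicates), in situ: HeLa Kyoto cells synchronized by double thymidine or nocodazole block, proteins quantified by TMT10plex mass spectrometry, three independent biological replicates.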
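Throughout, for solubility change mitosis vs G1/S (difference of NP-40 vs SDS log2 ratios): synchronized HeLa Kyoto cells (double thymidine block for G1/S, nocodazole release for mitosis), protein amounts in NP-40 versus SDS lysates quantified by mass spectrometry, three biological replicates.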
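Throughout, for solubility in G1/S (NP-40 vs SDS abundance): HeLa Kyoto cells arrested at G1/S by double thymidine block, proteins quantified by TMT10plex mass spectrometry in mild NP-40 versus SDS extracts, three biological replicates.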
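Throughout, for thermal stability score vs G1/S (z-score of summed log2 fold changes over temperatures): synchronized HeLa Kyoto cells, proteins quantified by TMT10plex mass spectrometry, three biological replicates, mitosis taken 0.5 h after nocodazole release, G1/S directly after double thymidine block.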

For “MNTAPSRPSPTRRDPYGFGDSRDSRRDRSPIRGSPRREPRDGRNGRDARDSRDIRDPRDLRDHRHSRDLRDHRDSRSVRDVRDVRDLRDFRDLRDSRDFRDQRDPMYDRYRDMRDSRDPMYRREGSYDRYLRMDDYCRRKDDSYFDRYRDSFDGRGPPGPESQSRAKERLKREERRREELYRQYFEEIQRRFDAERPVDCSVIVVNKQTKDYAESVGRKVRDLGMVVDLIFLNTEVSLSQALEDVSRGGSPFAIVITQQHQIHRSCTVNIMFGTPQEHRNMPQADAMVLVARNYERYKNECREKEREEIARQAAKMADEAILQERERGGPEEGVRGGHPPAIQSLINLLADNRYLTAEETDKIINYLRERKERLMRSSTDSLPGPISRQPLGATSGASLKTQPSSQPLQSGQVLPSATPTPSAPPTSQQELQAKILSLFNSGTVTANSSSASPSVAAGNTPNQNFSTAANSQPQQRSQASGNQPPSILGQGGSAQNMGPRPGAPSQGLFGQPSSRLAPASNMTSQRPVSSTGINFDNPSVQKALDTLIQSGPALSHLVSQTTAQMGQPQAPMGSYQRHY [NCOA5]”, the thermal stability score stood at 0.658 in data set [1] (setting [5]) and 1.68 in data set [1] (cell cycle stage: mitosis). The melting temperature stood at 49.9 °C in data set [2] (cell cycle stage: G1/S) and 49.1 °C in data set [2] (cell cycle stage: mitosis). The “solubility change mitosis (log2)” value in data set [3] turned out to be 0.489. The “solubility in G1/S (log2)” value in data set [4] is -0.619.

Consider “MVLSQRQRDELNRAIADYLRSNGYEEAYSVFKKEAELDVNEELDKKYAGLLEKKWTSVIRLQKKVMELESKLNEAKEEFTSGGPLGQKRDPKEWIPRPPEKYALSGHRSPVTRVIFHPVFSVMVSASEDATIKVWDYETGDFERTLKGHTDSVQDISFDHSGKLLASCSADMTIKLWDFQGFECIRTMHGHDHNVSSVAIMPNGDHIVSASRDKTIKMWEVQTGYCVKTFTGHREWVRMVRPNQDGTLIASCSNDQTVRVWVVATKECKAELREHEHVVECISWAPESSYSSISEATGSETKKSGKPGPFLLSGSRDKTIKMWDVSTGMCLMTLVGHDNWVRGVLFHSGGKFILSCADDKTLRVWDYKNKRCMKTLNAHEHFVTSLDFHKTAPYVVTGSVDQTVKVWECR [PAFAH1B1]”, for which the thermal stability score is 1.3 in data set [1] (setting [5]) and -0.762 in data set [1] (cell cycle stage: mitosis). In addition, the melting temperature in data set [2] (cell cycle stage: G1/S) turned out to be 55.8 °C; in data set [2] (cell cycle stage: mitosis), 55.5 °C. Also, in data set [3], the “solubility change mitosis (log2)” value is -0.149. Besides, in data set [4], the “solubility in G1/S (log2)” value is -0.211.

“MKARRNKKQIPSFRKLIKTSKVKLENKLKNKQFKQQSTLKKYRKEQRKLRQAVKDAVSKKPIPLENPKEKRPGKRIEREEEEEEEALPLDMMDEDDLQLMKDLGQRVSFLTRDLSSSEPVHAKKRKHERIIDKYEKIPRTLQTAPEKELIHLLPIKDKSGIIPQTREKPVTDSNKDEEDQEEERELEEEIIEDPIQELTIEEHLIERKKKLQEKKMHIAALASAILSDPENNIKKLKELRSMLMEQDPDVAVTVRKLVIVSLMELFKDITPSYKIRPLTEAEKSTKTRKETQKLREFEEGLVSQYKFYLENLEQMVKDWKQRKLKKSNVVSLKAYKGLAEVAVKSLCELLVALPHFNFHNNIIVLIVPLMNDMSKLISEMCCEAVKKLFKQDKLGQASLGVIKVISGFVKGRNYEVRPEMLKTFLCLRIKEVEVKKDTEDINKPKKFMTFKEKRKSLSRMQRKWKKAEEKLERELREAEASESTEKKLKLHTETLNIVFVTYFRILKKAQRSPLLPAVLEGLAKFAHLINVEFFDDLLVVLHTLIESGDLSYQESLHCVQTAFHILSGQGDVLNIDPLKFYTHLYKTLFKLHAGATNEGVEIVLQCLDVMLTKRRKQVSQQRALAFIKRLCTLALHVLPNSSIGILATTRILMHTFPKTDLLLDSESQGSGVFLPELDEPEYCNAQNTALWELHALRRHYHPIVQRFAAHLIAGAPSEGSGALKPELSRRSATELFEAYSMAEMTFNPPVESSNPKIKGKFLQGDSFLNEDLNQLIKRYSSEVATESPLDFTKYLKTSLH [NOC3L]”: the thermal stability score in data set [1] (setting [5]) was 0.294; in data set [1] (cell cycle stage: mitosis) it was 0.855. Also, the melting temperature in data set [2] (cell cycle stage: G1/S) was 49.2 °C; in data set [2] (cell cycle stage: mitosis) it was 50 °C. In addition, the “solubility change mitosis (log2)” value in data set [3] turned out to be 1.29. The “solubility in G1/S (log2)” value in data set [4] was -1.96.

For CDC42BPB, the thermal stability score is 0.874 in data set [1] (setting [5]) and 0.582 in data set [1] (cell cycle stage: mitosis). Also, the values for the melting temperature in data set [2] (cell cycle stage: G1/S) and in data set [2] (cell cycle stage: mitosis) were 51 °C and 50.6 °C, respectively. In addition, in data set [3], the “solubility change mitosis (log2)” value is -0.105. The “solubility in G1/S (log2)” value in data set [4] was -0.234.

With “MASGVTVNDEVIKVFNDMKVRKSSTQEEIKKRKKAVLFCLSDDKRQIIVEEAKQILVGDIGDTVEDPYTSFVKLLPLNDCRYALYDATYETKESKKEDLVFIFWAPESAPLKSKMIYASSKDAIKKKFTGIKHEWQVNGLDDIKDRSTLGEKLGGNVVVSLEGKPL [CFL2]”, the thermal stability score in data set [1] (setting [5]) was -0.937; in data set [1] (cell cycle stage: mitosis) it was -3.81. Also, the melting temperature in data set [2] (cell cycle stage: G1/S) was determined as 55.1 °C; in data set [2] (cell cycle stage: mitosis), 54.2 °C. For the same substance, the “solubility change mitosis (log2)” value in data set [3] was -0.058. Moreover, the “solubility in G1/S (log2)” value in data set [4] came to 0.129.

“MEALILEPSLYTVKAILILDNDGDRLFAKYYDDTYPSVKEQKAFEKNIFNKTHRTDSEIALLEGLTVVYKSSIDLYFYVIGSSYENELMLMAVLNCLFDSLSQMLRKNVEKRALLENMEGLFLAVDEIVDGGVILESDPQQVVHRVALRGEDVPLTEQTVSQVLQSAKEQIKWSLLR [COPZ1]”: the values for the thermal stability score in data set [1] (setting [5]) and in data set [1] (cell cycle stage: mitosis) were -1.54 and -1.52, respectively. Further, the values for the melting temperature in data set [2] (cell cycle stage: G1/S) and in data set [2] (cell cycle stage: mitosis) were 52.4 °C and 53.1 °C, respectively. Besides, the “solubility change mitosis (log2)” value in data set [3] was 0.197. Moreover, in data set [4], the “solubility in G1/S (log2)” value was determined as 0.235.

In the case of ZMYM4, the thermal stability score was found to be 1.6 in data set [1] (setting [5]) and 3.25 in data set [1] (cell cycle stage: mitosis). The melting temperature in data set [2] (cell cycle stage: G1/S) amounted to 46 °C; in data set [2] (cell cycle stage: mitosis) it was 49.4 °C. The “solubility change mitosis (log2)” value in data set [3] is 0.281. In data set [4], the “solubility in G1/S (log2)” value was -0.601.

On to “MAGKKNVLSSLAVYAEDSEPESDGEAGIEAVGSAAEEKGGLVSDAYGEDDFSRLGGDEDGYEEEEDENSRQSEDDDSETEKPEADDPKDNTEAEKRDPQELVASFSERVRNMSPDEIKIPPEPPGRCSNHLQDKIQKLYERKIKEGMDMNYIIQRKKEFRNPSIYEKLIQFCAIDELGTNYPKDMFDPHGWSEDSYYEALAKAQKIEMDKLEKAKKERTKIEFVTGTKKGTTTNATSTTTTTASTAVADAQKRKSKWDSAIPVTTIAQPTILTTTATLPAVVTVTTSASGSKTTVISAVGTIVKKAKQ [SAP30BP]”, for which the thermal stability score is 0.846 in data set [1] (setting [5]) and 1.18 in data set [1] (cell cycle stage: mitosis). Further, the melting temperature in data set [2] (cell cycle stage: G1/S) worked out at 52.6 °C; in data set [2] (cell cycle stage: mitosis), 53.6 °C. The “solubility change mitosis (log2)” value in data set [3] was -0.0287. Moreover, the “solubility in G1/S (log2)” value in data set [4] amounted to 0.144.

These data come from the supplement of paper PMC5998384.
